B1: IL6R-BF206/IL6R-L (antibody, human IgG1, kappa)
heavy: QVQLQESGPGLVKPSETLSLTCAVSGHSISHDHAWSWVRQPPGEGLEWIGFISYSGITNYNPSLQGRVTISRDNSKNTLYLQMNSLRAEDTAVYYCARSLARTTAMDYWGEGTLVTVSSASTKGPSVFPLAPSSKSTSGGTAALGCLVKDYFPEPVTVSWNSGALTSGVHTFPAVLQSSGLYSLSSVVTVPSSSLGTQTYICNVNHKPSNTKVDKKVEPKSCDKTHTCPPCPAPDLLGGDSVFLFPPKPKDTLMISRTPEVTCVVVDVSHEDGEVKFNWYVDGVEVHNAKTKPREEQYNSTYRVVSVLTVLHQDWLNGKEYKCKVSNKALPRPIEKTISKAKGQPREPQVYTLPPSRDELTKNQVSLTCLVKGFYPSDIAVEWESNGQPENNYKTTPPVLDSDGSFFLYSKLTVDKSRWQQGNVFSCSVMHEALHNHYTQESLSLSP
light: not shown
notes: alteration printed: BB233D/P238D/P271G/A330R; copies: 2 + 2
B2: IL6R-BF180/IL6R-L (antibody, human IgG1, kappa)
heavy: B1 heavy with D235E, G239D, R332K
light: not shown
notes: alteration printed: G237D/P238D/P271G/A330K; copies: 2 + 2
B3: IL6R-BF205/IL6R-L (antibody, human IgG1, kappa)
heavy: B1 heavy with Y298D
light: not shown
notes: alteration printed: B233D/P298D/P271G/Y296D/A330R; copies: 2 + 2
B4: IL6R-BF203/IL6R-L (antibody, human IgG1, kappa)
heavy: B1 heavy with D235E, G239D
light: not shown
notes: copies: 2 + 2
B5: IL6R-BF084/IL6R-L (antibody, human IgG1, kappa)
heavy: B1 heavy with D235E, G273P, V325M, R332K
light: not shown
notes: alteration printed: 9238D/Y325M/A330K; copies: 2 + 2
B6: IL6R-PD079/IL6R-L (antibody, human IgG1, kappa)
heavy: B1 heavy with D235E, G239A, M254Y, G273P, R332A, N436Y, E441K
light: not shown
notes: H chain: IL6R-F11 with P238D/G237A (EU numbering); also called P238D/G237A; copies: 2 + 2
B7: IL6R-PD095/IL6R-L (antibody, human IgG1, kappa)
heavy: B1 heavy with D235E, G239Y, M254Y, G273P, R332A, N436Y, E441K
light: not shown
notes: H chain: IL6R-F11 with P238D/G237Y (EU numbering); also called P238D/G237Y; copies: 2 + 2
B8: IL6R-PD080/IL6R-L (antibody, human IgG1, kappa)
heavy: B1 heavy with D235E, G239D, M254Y, G273P, R332A, N436Y, E441K
light: not shown
notes: H chain: IL6R-F11 with P238D/G237D (EU numbering); also called P238D/G237D; copies: 2 + 2
B9: IL6R-PD042/IL6R-L (antibody, human IgG1, kappa)
heavy: B1 heavy with D235E, L236W, M254Y, G273P, R332A, N436Y, E441K
light: not shown
notes: H chain: IL6R-F11 with P238D/L234W (EU numbering); also called P238D/L234W; copies: 2 + 2
B10: IL6R-PD094/IL6R-L (antibody, human IgG1, kappa)
heavy: B1 heavy with D235E, G239W, M254Y, G273P, R332A, N436Y, E441K
light: not shown
notes: H chain: IL6R-F11 with P238D/G237W (EU numbering); also called P238D/G237W; copies: 2 + 2
B11: IL6R-PD081/IL6R-L (antibody, human IgG1, kappa)
heavy: B1 heavy with D235E, G239E, M254Y, G273P, R332A, N436Y, E441K
light: not shown
notes: H chain: IL6R-F11 with P238D/G237E (EU numbering); also called P238D/G237E; copies: 2 + 2
B12: IL6R-PD082/IL6R-L (antibody, human IgG1, kappa)
heavy: B1 heavy with D235E, G239F, M254Y, G273P, R332A, N436Y, E441K
light: not shown
notes: H chain: IL6R-F11 with P238D/G237F (EU numbering); also called P238D/G237F; copies: 2 + 2
B13: IL6R-PD043/IL6R-L (antibody, human IgG1, kappa)
heavy: B1 heavy with D235E, L236Y, M254Y, G273P, R332A, N436Y, E441K
light: not shown
notes: H chain: IL6R-F11 with P238D/L234Y (EU numbering); also called P238D/L234Y; copies: 2 + 2
B14: IL6R-PD087/IL6R-L (antibody, human IgG1, kappa)
heavy: B1 heavy with D235E, G239M, M254Y, G273P, R332A, N436Y, E441K
light: not shown
notes: H chain: IL6R-F11 with P238D/G237M (EU numbering); also called P238D/G237M; copies: 2 + 2

Numbering of substitutions follows the chain as printed. Numbers in names are those of the source.

The term Kd denotes the free concentration of one partner at which half of the binding sites on the other are occupied at equilibrium, for simple one-to-one binding.

T2 sequence (P08637 17-208 F176V): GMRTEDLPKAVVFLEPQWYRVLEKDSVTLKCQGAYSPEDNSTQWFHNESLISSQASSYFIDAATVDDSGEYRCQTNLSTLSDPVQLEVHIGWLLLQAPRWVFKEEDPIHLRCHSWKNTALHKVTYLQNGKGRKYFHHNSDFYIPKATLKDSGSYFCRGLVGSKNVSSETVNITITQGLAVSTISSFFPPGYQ

The first experiment addresses T1, FcγRIIa type R extracellular domain with C-terminal His tag (human, UniProt P12318 34-217).
T1 chain: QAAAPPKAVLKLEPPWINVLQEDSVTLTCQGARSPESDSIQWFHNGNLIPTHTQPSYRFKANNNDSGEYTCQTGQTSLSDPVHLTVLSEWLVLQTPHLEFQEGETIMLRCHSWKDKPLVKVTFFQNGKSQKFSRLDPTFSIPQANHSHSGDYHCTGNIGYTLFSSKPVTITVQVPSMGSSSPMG
Briefly: SPR (Biacore), antibody captured, FcgR analyte. An excerpt:
(§1) In the table, SEQ ID NO refers to the SEQ ID NO of the H chain of the evaluated variant, and alteration refers to the alteration introduced into IL6R-B3 (SEQ ID NO: 40). […] Furthermore, KD(IIaR)/KD(IIb) and KD(IIaH)/KD(IIb) in the table respectively represent the value obtained by dividing the KD value of each variant for FcγRIIaR by the KD value of each variant for FcγRIIb, and the value obtained by dividing the KD value of each variant for FcγRIIaH by the KD value of each variant for FcγRIIb. KD(IIb) of the parent polypeptide/KD(IIb) of the altered polypeptide refers to the value obtained by dividing the KD value of the parent polypeptide for FcγRIIb by the KD value of each variant for FcγRIIb.
(§2) Kinetic analyses for calculating the KD values of each altered antibody for FcγR were performed according to the following method. First, antibodies of interest were captured onto the above-mentioned sensor chips, and an Fcγ receptor diluted with the running buffer was allowed to interact. The Biacore™ Evaluation Software was used to globally fit the measured results to the obtained sensorgram using the 1:1 Langmuir binding model, and the association rate constant ka (L/mol/s) and the dissociation rate constant kd (1/s) were calculated; and from those values the dissociation constants KD (mol/L) were calculated.
(In general: SPR reads the build-up and loss of mass on a sensor chip optically.)
B1 returned a Kd of 3.1 µM. Same read-out and setting: the figure for B2 is 1.2 µM. In turn, B3 registered a Kd of 3.5 µM. The same measure, in the same setting: the figure for B4 is 0.99 µM.

Another experiment has as its target T2, FcγRIIIa type V extracellular domain with C-terminal His tag (human, UniProt P08637 17-208).
T2 construct: extracellular domain; also called FcIIIaV; FcgRIIIaV; not shown: His tag at the C terminus
The experiment is described as follows: SPR (Biacore), antibody captured, FcgR analyte.
From the text: as §1, §2
With B1, the Kd amounted to 6.9 µM. B5 displayed a Kd of 6.7 µM. On the same count and under the same terms, the figure for B2 is 7 µM. Still for that read-out and setting: the figure for B3 is 6.8 µM.

A further experiment concerns the target T3, FcγRIIa type R extracellular domain with C-terminal His tag (human, UniProt P12318 34-217).
T3 construct: extracellular domain; also called FcγRIIa R; FcγRIIaR
T3 sequence (looked up): T1 chain
The experiment is described as follows: SPR (Biacore), Reference Example 2.
From the text: (§3) Furthermore, KD(IIaR)/KD(IIb) and KD(IIaH)/KD(IIb) in the table respectively show the value obtained by dividing the KD value of each variant for FcγRIIaR by the KD value of each variant for FcγRIIb, and the value obtained by dividing the KD value of each variant for FcγRIIaH by the KD value of each variant for FcγRIIb. KD(IIb) of the parent polypeptide/KD(IIb) of the altered polypeptide refers to a value obtained by dividing the KD value of the parent polypeptide for FcγRIIb by the KD value of each variant for FcγRIIb.
as §2
B6 had a Kd of 32 µM. Molecule B7 yielded an equilibrium dissociation constant (Kd) of 7.9 µM. B8 had a dissociation constant (Kd) of 21 µM. B9: the Kd worked out at 16 µM. Same read-out and setting: in the case of B10 it was 7.2 µM; in that of B11, 38 µM; in that of B12, 14 µM. B13 registered a Kd of 26 µM.

Molecule B14 returned a dissociation constant Kd of 22 µM.

A further experiment deals with T4, FcγRIIb extracellular domain with C-terminal His tag (human, UniProt P31994 43-217).
T4 construct: extracellular domain; also called FcgRIIb; FcγRIIb extracellular region
T4 sequence (looked up): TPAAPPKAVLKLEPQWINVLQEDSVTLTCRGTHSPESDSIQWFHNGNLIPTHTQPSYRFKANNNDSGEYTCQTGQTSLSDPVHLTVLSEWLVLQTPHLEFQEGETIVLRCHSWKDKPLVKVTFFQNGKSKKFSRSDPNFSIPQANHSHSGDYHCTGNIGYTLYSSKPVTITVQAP
Briefly: SPR (Biacore), Reference Example 2.
From the text: as §3, §2
As for B9, the Kd stood at 20 µM.

The record behind these values is patent US20230174655A1 (published 2023).
